B1: SSAP_143: SEQ ID NO: 312; Staphylococcus chromogenes (protein)
chain: ANAKEFKKQMNSKNEVAETNNAPQKAKGPRQQVSDLLDRMAPEIQKALPNNMSAERMARIAMTAVSSNPKLLECDPKSFIGALMQASQIGLEPNTALGQAYLIPYGNQVQLQLSYLGLIELATRTGQYKAIYAHEVYKDDEFSYEYGLYKNLIHKPVDDPNGEPIGYYAVYHLMNGGYDFAYWTRKKVEAHAQQYSKAVQQGWNSPWKSDFNAMAKKTVLKDLLKYAPKAIEVSQAIGSDSKVSEINDEGEIIDVTDYSQEEEK
modifications: Staphylococcus chromogenes
B2: SSAP_308: SEQ ID NO: 477; uncultured organism (protein)
chain: SNELQNIKPEVFGEVEDKLGSLADNNGIDLPENYSARNALKQAYLKLQSKDEPVFDKYKDETIYNALLDTLTQGLNPGKDQVYYIGYGNHLTAQKSYFGNIALAKRMAGVQEVSSNVILEGDEVDISIERGQQVIESHDRNFDSMDGQVKGAYAVISFEDERKDKYEIMTLKELKQAWAQGKSFGGNGKSPHHKFTKEMAKKTVINRALKPLIKASDDSGLIKEKPKLEKLKDGQQERTEGEKIEEVDVDKEEVVEVDYDV
modifications: uncultured organism
B3: SSAP_296: SEQ ID NO: 465; Peptostreptococcaceae bacterium VA2 (protein)
chain: QPFLVQRYPHLDVVLNDQVHVLKSFFFQNHIILYLYKYIECLQIFHKPLLKGDRGKVIGYYAVYHLEPNGYNFVFMTYDEVKNHGKKYSKNFEGGIWEKEFDSMAKKTVIKKLLKYAPLSIEMQKAVTFDESVKGSIDNDMLLVESIEDVEEIQLDTNI
modifications: Peptostreptococcaceae bacterium VA2
B4: SSAP_302: SEQ ID NO: 471; Clostridium saccharobutylicum (protein, listed as Clostridium saccharobutylicum)
chain: ATNSSLKNQLIEKEQTTVNVQETMFKNLINSDDVKSKFTEVLKDKAIQYINSIINLVNSDKDLIECEPKSIIDACMSAVSLDLSVDKNLEYVEIIPYKKKANFQLGYRGYIQLLLRTGEYKSVNIIEVYEGQLKSWNQLAEEFDIDFTYKKSDAVIGYAGYFEMLNGFRKSVYWSKENMDALRENSFKSDTRWNNDYKAMAKRAVIRNMISKWGSLSIEMEKAYCEDLNTDKFVNGN
B5: SSAP_153: SEQ ID NO: 322; Staphylococcus intermedius (protein, listed as Staphylococcus intermedius)
chain: ANANSFKEQVSKNEVQETNNEKPKGPRQQVSDLLERMAPEIQKALPSHMSAERMARIAMTAISSNPQLLECNPRSLIGALLQASQIGLEPNTALGQAYLIPYYNHKKKEFEAQLQLSYLGLIELATRTGQYKAIYAHEVYKEDEFYYEYGLHKNLVHKPVDDPNGEPVGYYAVYHLQNGGFDFAYWTKNKIELHAGNYSKAVQKGWNSPWKTDFNAMAKKTVLKDLLKYAPKSIEISQAVGSDSKVTEINKQGEIIDITEYGQEALEG
B6: SSAP_75: SEQ ID NO: 244 (protein)
chain: ANELGIFSVDNLNMTTIKQYLDGGGKASDAELVLLINLCKQNNMNPFMKEVYFIKYGNQPAQIVVSRDFYRKRAFQNPNFAGIEVGVIVLNKDGVLEHNEGTFKTHEQELVGAWARVHLKNTEIPVYVAVSYDEYVQMKDGHPNKMWTNKPCTMLGKVAESQALRMAFPAEFSGTYGEEELPEPEKEPREVNGVKEPDRAQIESFDKEDYAAKKIEELKEKAQPQKEVVKETGEVIDKITAEDF
B7: SSAP_111: SEQ ID NO: 280; Siminovitchia fordii (protein, listed as Siminovitchia fordii)
chain: ATNQDIKNQLANKANGNKPASPANTIAAYLKKMGPEIEKALPKHMDADRLARIALTTIRTTPKLLECNISSLMGAVMQSAQLGLEPGLIGHCYIIPYGKEATFIIGYKGMIDLARRSGQIQNIYAHAVFENDEFDYALGLHPKLEHKPAGSNRGEIIGAYAVAHFKDGGYQFEYMAKEDIEKRKSRSAAARSKHSPWATDYEEMAKKTVIRHMWKYLPISVEIQQQAIQDEVVRKDVTSEPEFIDMEDMPEVEEGQSEESEQVEAPFD
B8: SSAP_92: SEQ ID NO: 261; Edwardsiella piscicida (protein, listed as Edwardsiella piscicida)
chain: TNNQQPPIATADLQKAQSQAPAVKPDQKLINFINQPSMKGQIAAALPRHMAPDRMIRIITTEIRKTPALATCDMQSFIGSVVQCSQLGLEPGGALGHAYLLPFGNGKAKSGQSNVQLIIGYRGMIDLARRSGQIVSISARTVRDGDQFHYEYGLDETLKHVPGDNESSPITHVYAVAKLKDGGVQFEVMTFNQIEKVRGQSKAGNNGPWQTHWEEMAKKTVIRRLFKYLPVSIEMQKAVILDEKAEANIDQENASVISAEFSVVED
B9: SSAP_223: SEQ ID NO: 392; Haloactinospora alba (protein, listed as Haloactinospora alba)
chain: GQSVTNAVAQRDTSPSGMVGKYRDDFAQVMPSHVNGAGWVRIAQGILRRDAKLAEAARNAPQSLMSALMDAAQQGLTPGTTEFYLVPRKRKGSLEVQGITGYQGEIELIYRAGAVASVVAEIVHEHDTFEWIPGKHERPIHEADWFGNRGTMVGAYAYAVMNSGSTSKVVILNQHDIEKARAMSDGADSSYSPWQKWPESMWLKTAAHRLAKWVPTSAEYRHEQERARARSEDTEIPASPDSDVVHAEIVEENDDEQAT
B10: SSAP_135: SEQ ID NO: 304; Amycolatopsis arida (protein, listed as Amycolatopsis arida)
chain: HGTALNPERFTRVALTVIRQSADLQRCRPESLLGALMTSAQLGLEPGPLGEAYLVPYGDQVTFIPGYRGLIKLAWQSGQLRHISARVVHEGDRFSYSYGLHPDLIHQPTRGDRGPITDVYAAATLIDGGVEFEVLDVATVETIRARSRAGRKGPWVTDWEAMARKTAIRQLAKWLPMATVMSRAIAAEGTVRTDLDADALDDLTADPGPEVLDADPAWDGPEPPGDQARNQEPTTQGDA
B11: SSAP_19: SEQ ID NO: 188 (protein)
chain: NTPTMKRKFEEVLHENANAFMSNVMTLVSNDSYLAESEPMSILSGALTAATLNLGLDKNLGYAYLVPFNTKNKQTGKWERKAQFILGYKGYIQLAQRSGKYKALNVIEVYEGELLSWNRLTEEFEFDPNGRQSDDVIGYVGYFELLNGFKKTVYWTKQEIEAHRIANSKDKEKTKLSGVWATDYNAMARKTVLRNMLSKWGILSIEMQEATTSDEKVQQMQEDGNIISETEVEENTTMKTAEVINEADSDSLNQTDLFDTKNPPLE
B12: SSAP_93: SEQ ID NO: 262; Morganella morganii (protein, listed as Morganella morganii)
chain: SNPPIAQADLQKAQGTAVKEKTKDQQLIQFINQPGMKAQLAAALPRHITPDRMIRIVTTEIRKTPSLATCDMQSFIGAVVQCSQLGLEPGNALGHAYLLPFGNGKAASGQSNVQLIIGYRGMIDLARRSGQIISISARTVREGDSFHFEYGLNEDLTHVPGENDSGPITHVYAVARLKEGGVQFEVMSFSQIEKVRDSSKAGKNGPWVSHWEEMAKKTVIRRLFKYLPVSIEMQRAVILDEKAEANVDQEHASIFEGEYETVSPE
B13: SSAP_117: SEQ ID NO: 286; Enterocloster bolteae (protein, listed as Enterocloster bolteae)
chain: GVNVKHELEQRAAGQGASVRLTKNMTIVDMVKALEPEIRRALPAVLTPERFTRMALSSINNTPELAECTPMSFIAALLNAAQLGLEPNTPLGQAYLIPYKNKGKLECQFQLGYKGLIDLAYRTGQVQIIQAQVVREFDSFEYQYGLDSKLVHKPGEGARGEITYVYGLFKLSNGGYGFEVSNKTEMDTFAARYSKSFGSKYSPWTEDYESMAKKTVIKRVLKYAPISSDFQKALSMDETIKTGIAVDMSEIRNECLPEEAGSEAA

The molecules below were run on gene editing with Cas9 (assay: Screen of 322 new SSAP proteins, gene editing activity with Cas9 (Table 5)). Settings: not given.
Assay type: cell-based
Parameters: Cas9 with SSAP activity: scale not given here
Procedure, shortened: (§1)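 Read-out is gene editing activity. Candidates come from sequence data mining, are made synthetically, and are tested alongside either nuclease-active Cas9 or catalytically dead dCas9.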

First: B1
Second: B2
The “Cas9 with SSAP activity” value of the first is higher: −0.553 for the first, −0.693 for the second.

Compared with B3, B4 is lower in “Cas9 with SSAP activity” value: 0.244 for the first, −0.842 for the second.

First: B5
Second: B6
The “Cas9 with SSAP activity” value of the first is lower: −2.201 for the first, 0.284 for the second.

Going from B7 to B8, the “Cas9 with SSAP activity” value rises from 0.173 to 2.341.

First: B9
Second: B10
The “Cas9 with SSAP activity” value of the first is higher: 0.236 for the first, −1.283 for the second.

Compared with B11, B12 is higher in “Cas9 with SSAP activity” value: −0.298 for the first, 0.714 for the second.

B13 was tested, and the “Cas9 with SSAP activity” value was −4.474.

Same assay, conditions: normalized

First: B1
Second: B2
The “Cas9 with SSAP activity (normalized)” value of the first is lower: −1.314 for the first, −1.286 for the second.

First: B3
Second: B4
The “Cas9 with SSAP activity (normalized)” value of the first is higher: 0.617 for the first, −0.289 for the second.

Going from B5 to B6, the “Cas9 with SSAP activity (normalized)” value rises from −0.296 to 0.225.

Compared with B7, B8 is higher in “Cas9 with SSAP activity (normalized)” value: 0.129 for the first, 2.795 for the second.

Compared with B9, B10 is lower in “Cas9 with SSAP activity (normalized)” value: 0.173 for the first, −0.722 for the second.

First: B11
Second: B12
The “Cas9 with SSAP activity (normalized)” value of the first is lower: −0.329 for the first, 1.299 for the second.

For B13, the “Cas9 with SSAP activity (normalized)” value was −1.192.

What follows are molecules tested on gene editing with Cas9 and dCas9 (assay: Screen of 322 new SSAP proteins, activity across all experiments (Cas9 and dCas9, Table 5)). Settings: not given.
Assay type: cell-based
Parameters: scale not given here
Procedure, shortened: as §1

Compared with B1, B2 is higher in “Activity across all experiments” value: −1.198 for the first, −0.985 for the second.

First: B3
Second: B4
The “Activity across all experiments” value of the first is higher: −0.753 for the first, −1.394 for the second.

First: B5
Second: B6
The “Activity across all experiments” value of the first is lower: −1.867 for the first, −0.687 for the second.

Going from B7 to B8, the “Activity across all experiments” value rises from −0.622 to 0.412.

Going from B9 to B10, the “Activity across all experiments” value falls from −0.846 to −1.554.

Compared with B11, B12 is higher in “Activity across all experiments” value: −0.847 for the first, −0.650 for the second.

B13 was tested, and the “Activity across all experiments” value was −2.868.

What follows are molecules tested on gene editing with dCas9 (assay: Screen of 322 new SSAP proteins, gene editing activity with dCas9 (Table 5)). Settings: not given.
Assay type: cell-based
Parameters: dCas9 with SSAP activity: scale not given here
Procedure, shortened: as §1

Compared with B1, B2 is higher in “dCas9 with SSAP activity” value: −1.842 for the first, −1.277 for the second.

Compared with B3, B4 is lower in “dCas9 with SSAP activity” value: −1.749 for the first, −1.946 for the second.

Compared with B5, B6 is lower in “dCas9 with SSAP activity” value: −1.534 for the first, −1.658 for the second.

Compared with B7, B8 is lower in “dCas9 with SSAP activity” value: −1.417 for the first, −1.516 for the second.

Compared with B9, B10 is higher in “dCas9 with SSAP activity” value: −1.928 for the first, −1.826 for the second.

Compared with B11, B12 is lower in “dCas9 with SSAP activity” value: −1.396 for the first, −2.015 for the second.

With B13 the “dCas9 with SSAP activity” value was −1.263.

Same assay, conditions: normalized

Going from B1 to B2, the “dCas9 with SSAP activity (normalized)” value rises from −1.900 to −1.011.

Compared with B3, B4 is lower in “dCas9 with SSAP activity (normalized)” value: −0.598 for the first, −0.772 for the second.

Compared with B5, B6 is lower in “dCas9 with SSAP activity (normalized)” value: −0.179 for the first, −0.897 for the second.

First: B7
Second: B8
The “dCas9 with SSAP activity (normalized)” value of the first is lower: −0.419 for the first, −0.177 for the second.

Compared with B9, B10 is lower in “dCas9 with SSAP activity (normalized)” value: −0.948 for the first, −2.544 for the second.

First: B11
Second: B12
The “dCas9 with SSAP activity (normalized)” value of the first is higher: −0.389 for the first, −0.557 for the second.

For B13, the “dCas9 with SSAP activity (normalized)” value was −0.179.
